The target in assay [1] is BA.2.12.1 spike, recombinant trimer that retains the native sequence (SARS-CoV-2) (UniProt P0DTC2). The experiment in a line: cryo-EM structure.
Assay [2] deals with BA.4 spike, recombinant trimeric S-twin-Strep, prefusion stabilized (SARS-CoV-2) (UniProt P0DTC2). The experiment in a line: cryo-EM structure.

Regarding “BA.2.12.1 spike, recombinant trimer that retains the native sequence (from UniProt P0DTC2) (natural protein)”, the stoichiometry N (chains per oligomer) in assay [1] was 3.

Regarding “BA.4 spike, recombinant trimeric S-twin-Strep, prefusion stabilized (from UniProt P0DTC2 28-1147) (natural protein)”, in assay [2], the stoichiometry N (chains per oligomer) worked out at 3.

For the origin of these results see article PMC10978878.
